B1: C9orf25 (parent)
chain: LARKGSLKNGSMGSPVNQQPKKNN
B2: ZNF263 (parent)
chain: VPGTQVGQGGKLWDPSVQSCKEGL

Variants of: B1
Assay: protein stability index of a GFP-peptide fusion (GPS, HEK-293T) (PSI 1-6); higher = more stable
Settings: c terminus: a fixed tail appended
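Also: lentivirally expressed fusions sorted by FACS into six bins by GFP to DsRed ratio, PSI derived from sequencing read proportions per bin multiplied by bin number.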

Row | Variant | protein stability index
1 | N24F | 3.96
2 | N24A | 4.52
3 | N24D | 4.85
4 | N24T | 4.83
5 | N24Y | 3.78
6 | N24V | 3.85
7 | N24E | 4.14
8 | N24Q | 4.85
9 | N24S | 4.7
10 | N24C | 4.69
11 | N24I | 3.82
12 | N24G | 4.76
13 | N24W | 3.88
14 | N24R | 4.42
15 | N24M | 4.02
16 | N24P | 4.48
17 | N24L | 4.76
18 | N24H | 4.79
19 | N24K | 5.08
20 | N23V | 4.59
21 | N23Y | 3.82
22 | N23Q | 4.64
23 | N23W | 4
24 | N23R | 4.18
25 | N23S | 4.58
26 | N23T | 4.89

Variants of: B2
Assay: as above
Settings: c terminus: a fixed tail appended

Row | Variant | protein stability index
27 | G7A | 4.02
28 | G7S | 4.41
29 | G7M | 3.91
30 | G7I | 3.67
31 | G7W | 4.06
32 | G7V | 3.87
33 | G7L | 3.77
34 | G7F | 3.36
35 | G7R | 3.68
36 | G7Y | 3.86
37 | G7D | 4.24
38 | G7T | 3.33
39 | G7H | 3.78
40 | G7N | 4.76
41 | G7C | 4.29
42 | G7P | 3.78
43 | G7E | 4.41
44 | G7K | 3.81
45 | G7Q | 3.69
46 | T4F | 4.15
47 | T4A | 4.55
48 | T4I | 3.42
49 | T4S | 4.08
50 | T4L | 4.38

Row | Variant | protein stability index
51 | T4V | 4.57
52 | T4M | 3.92
53 | T4P | 4.29
54 | T4Q | 4.23
55 | T4K | 3.96
56 | T4Y | 4.08
57 | T4E | 3.4
58 | T4R | 3.92
59 | T4D | 4.85
60 | T4C | 4
61 | T4H | 4.1
62 | T4W | 3.55
63 | T4G | 4.26
64 | T4N | 4.44
65 | G3L | 4.1
66 | G3C | 4.12
67 | G3Y | 4.06
68 | G3T | 4.32
69 | G3V | 3.99
70 | G3M | 3.8
71 | G3A | 4.21
72 | G3N | 4.3
73 | G3P | 4.5
74 | G3H | 4.28

Row | Variant | protein stability index
75 | G3D | 4.96
76 | G3K | 3.77
77 | G3Q | 4
78 | G3I | 4.3
79 | G3R | 3.35
80 | G3S | 3.48
81 | G3W | 3.77
82 | G3E | 4.88
83 | G3F | 3.01
84 | P2A | 4.17
85 | P2V | 4.01
86 | P2D | 4.12
87 | P2Y | 2.83
88 | P2C | 3.61
89 | P2E | 4.25
90 | P2M | 4.26
91 | P2S | 3.55
92 | P2K | 3.89
93 | P2H | 3.75
94 | P2L | 3.89
95 | P2F | 3.99
96 | P2R | 4.24
97 | P2N | 4.18
98 | P2I | 3.19

Row | Variant | protein stability index
99 | P2Q | 3.87
100 | P2T | 3.86
101 | P2W | 3.12
102 | P2G | 4.28
103 | Q8F | 4.17
104 | Q8C | 3.07
105 | Q8D | 4.71
106 | Q8H | 4.12
107 | Q8E | 3.48
108 | Q8I | 4.15
109 | Q8A | 4.41
110 | Q8G | 4.28
111 | V1S | 4.19
112 | V1P | 4.78
113 | V1R | 4.08
114 | V1G | 4.05
115 | V1L | 3.53
116 | V1Q | 4.51
117 | V1C | 4.28
118 | V1M | 4.69
119 | V1E | 5.15
120 | V1I | 4.31
121 | V1A | 4.56
122 | V1K | 4.36

Row | Variant | protein stability index
123 | V1Y | 1.85
124 | V1W | 4.23
125 | V1F | 1.64
126 | V1T | 4.63
127 | V1H | 4.17
128 | V1N | 4.53
129 | V1D | 4.85
130 | Q5T | 4.2
131 | Q5H | 4.63
132 | Q5K | 4.21
133 | Q5M | 3.79
134 | Q5F | 3.3
135 | Q5S | 4.13
136 | Q5D | 4.16
137 | Q5I | 4.16
138 | Q5Y | 3.25
139 | Q5W | 4.15
140 | Q5A | 4
141 | Q5V | 4.24
142 | Q5E | 3.94
143 | Q5N | 4.23
144 | Q5L | 4.17
145 | Q5C | 4.04
146 | Q5P | 4.33

Row | Variant | protein stability index
147 | Q5G | 4.27
148 | Q5R | 4.2
149 | V6R | 4.55
150 | V6H | 3.51
151 | V6Y | 3.82
152 | V6G | 4.83
153 | V6K | 4.69
154 | V6Q | 4.73
155 | V6C | 3.49
156 | V6W | 3.36
157 | V6L | 4.03
158 | V6T | 4.7
159 | V6P | 4.26
160 | V6M | 4.29
161 | V6S | 4.67
162 | V6E | 4.29
163 | V6N | 4.47
164 | V6F | 4.65
165 | V6I | 4.28
166 | V6D | 4.3
167 | V6A | 3.97

From the supplement of paper PMC10567573
